As a reminder, the stoichiometry N is a count of units in the complex or per binding partner.

Sequences and labels used below:
B1: baseplate wedge protein 1 (BW1) gp46 (natural protein, phage Mu, UniProt Q9T1V3 1-145, looked up)
chain: MTDLAIIWTNGRGDIAQDGIDMLTDDSLTTDVTISLFTDRRALDSDTLPDGSDDRRGWWGDSYRDRPIGSRLWLLSREKATPDTLERARGYAEEALEWLKTAGRVSAINVRAEQLHQGWLYLYIALTLPDGSVIPYEFKAAFNGV
notes: baseplate wedge protein 1 gp46 of myophage Mu, as it stands in the virion; One copy in each of the six wedges; Model deposited here; source: phage Mu virions grown on E. coli (ATCC 23724), purified (PEG 8000/NaCl precipitation, CsCl gradient)
B2: baseplate wedge protein 3 (BW3) gp48 (natural protein, phage Mu, UniProt Q9T1V1 1-180, looked up)
chain: MAVTPWQTAFLQLLPSGLAWNKSPDSKLSALAQAISDVIATAADDARQMLRERFPSTSRWYLGEWESFLGLPDCTSENGTLSERQRAAANKMRMTGNLSRRFYEWLAAQYGFTVRLTDSTEGQWVTQVNIYGIKNYRNATVLDNVLTPLRVYESGALECLLEKYKPAHQIYKFVYHDGDN
notes: baseplate wedge protein 3 gp48 of myophage Mu, as it stands in the virion; One copy in each of the six wedges; Model deposited here; source: phage Mu virions grown on E. coli (ATCC 23724), purified (PEG 8000/NaCl precipitation, CsCl gradient)
B3: spike protein gp45 (natural protein, phage Mu, UniProt Q9T1V4 1-197, looked up)
chain: MERVNDSALNRLLTPLMRRVRLMLARAVVNVINDGRKVQNLQVGLLDDEESDEVERLQNYGHFSVPLPGAEALIACVGAQRDQGIAVVVEDRRYRPTNLEPGDAGIYHHEGHRIRLTKDGRCIITCKTVEVYADESMTVDTPRTTFTGDVEIQKGLGVKGKSQFDSNITAPDAIINGKSTDKHIHRGDSGGTTGPMQ
notes: baseplate spike protein gp45 of myophage Mu, as it stands in the virion; Trimer; Model deposited here; source: phage Mu virions grown on E. coli (ATCC 23724), purified (PEG 8000/NaCl precipitation, CsCl gradient)

Assay in all cases: cryo-EM structure; purified phage Mu virions in the extended state (native phage) in phage buffer (10 mM MgCl2, 5 mM NaCl, 10 mM Tris-HCl, pH 7.4); icosahedral, symmetry-mismatch and local reconstruction; 3.2 Å (3-fold capsid), 3.4 Å (portal-adaptor), 3.5 Å (terminator-tail), 3.3 Å (baseplate)
One series concerns the target T1, tail sheath protein gp39 (phage Mu, UniProt P79678 1-495).
T1 construct: tail sheath protein gp39 of myophage Mu, as it stands in the virion; Hexameric rings, 30 of them stacked in the tail; Model deposited here; source: phage Mu virions grown on E. coli (ATCC 23724), purified (PEG 8000/NaCl precipitation, CsCl gradient)
T1 sequence (looked up): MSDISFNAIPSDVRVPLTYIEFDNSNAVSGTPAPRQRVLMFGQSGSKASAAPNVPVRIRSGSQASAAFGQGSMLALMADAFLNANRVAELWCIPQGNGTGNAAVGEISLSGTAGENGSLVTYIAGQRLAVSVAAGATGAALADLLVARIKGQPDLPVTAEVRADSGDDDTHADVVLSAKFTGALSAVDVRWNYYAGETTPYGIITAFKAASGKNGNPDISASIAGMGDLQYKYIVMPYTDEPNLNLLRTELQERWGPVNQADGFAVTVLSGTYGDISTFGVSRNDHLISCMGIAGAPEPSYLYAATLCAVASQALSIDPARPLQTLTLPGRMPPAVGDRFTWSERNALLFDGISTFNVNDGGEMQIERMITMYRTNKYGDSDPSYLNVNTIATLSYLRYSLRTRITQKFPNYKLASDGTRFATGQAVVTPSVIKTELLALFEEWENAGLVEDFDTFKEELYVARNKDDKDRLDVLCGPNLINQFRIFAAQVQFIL
The settings on record: both partners purified.

Series [1] addresses T2, tube initiator protein gp43 (phage Mu, UniProt P08557 1-495).
T2 construct: tube initiator protein gp43 (N protein, DNA circularization protein) of myophage Mu, as it stands in the virion; Hexamer; Model deposited here; also called N protein; DNA circularization protein; source: phage Mu virions grown on E. coli (ATCC 23724), purified (PEG 8000/NaCl precipitation, CsCl gradient)
T2 sequence (looked up): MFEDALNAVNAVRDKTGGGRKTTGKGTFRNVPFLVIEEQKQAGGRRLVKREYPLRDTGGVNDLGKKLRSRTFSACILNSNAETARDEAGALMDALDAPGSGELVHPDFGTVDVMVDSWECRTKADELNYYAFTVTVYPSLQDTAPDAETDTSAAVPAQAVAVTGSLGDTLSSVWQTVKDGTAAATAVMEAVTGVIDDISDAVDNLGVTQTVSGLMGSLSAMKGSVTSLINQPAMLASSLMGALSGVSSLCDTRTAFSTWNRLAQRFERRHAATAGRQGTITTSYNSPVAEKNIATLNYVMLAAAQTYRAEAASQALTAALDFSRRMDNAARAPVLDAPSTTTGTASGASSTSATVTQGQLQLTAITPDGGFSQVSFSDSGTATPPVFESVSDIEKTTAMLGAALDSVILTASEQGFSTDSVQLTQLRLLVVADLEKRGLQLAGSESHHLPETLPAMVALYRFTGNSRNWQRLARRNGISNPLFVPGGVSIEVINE
The settings on record: both partners purified.

The target in series [2] is T3, baseplate wedge protein 2 (BW2) gp47 (phage Mu, UniProt Q9T1V2 1-360).
T3 construct: baseplate wedge protein 2 gp47 of myophage Mu, as it stands in the virion; Two conformers (BW2-i, BW2-o) in each of the six wedges; Model deposited here; also called BW2-i; BW2-o; source: phage Mu virions grown on E. coli (ATCC 23724), purified (PEG 8000/NaCl precipitation, CsCl gradient)
T3 sequence (looked up): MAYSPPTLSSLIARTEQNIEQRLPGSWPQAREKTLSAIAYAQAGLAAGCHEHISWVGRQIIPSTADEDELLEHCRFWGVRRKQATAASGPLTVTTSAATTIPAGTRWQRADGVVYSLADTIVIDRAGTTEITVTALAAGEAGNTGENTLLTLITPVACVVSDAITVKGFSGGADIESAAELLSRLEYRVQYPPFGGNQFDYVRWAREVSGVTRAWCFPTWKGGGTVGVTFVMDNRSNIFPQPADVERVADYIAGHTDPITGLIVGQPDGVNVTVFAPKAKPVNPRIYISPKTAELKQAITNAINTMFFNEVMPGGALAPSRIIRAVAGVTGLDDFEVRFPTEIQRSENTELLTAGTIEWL
The note with it: both partners purified.

Series [3] addresses B2. The note with it: both partners purified.
The target in series [4] is T4, G(+) type fiber protein gp49 (phage Mu, UniProt Q9T1V0 1-504).
T4 construct: G(+) type tail fiber protein gp49 of myophage Mu, as it stands in the virion; only the N-terminus was modelled; Trimer; six fibers in the baseplate; Model deposited here; source: phage Mu virions grown on E. coli (ATCC 23724), purified (PEG 8000/NaCl precipitation, CsCl gradient)
T4 sequence (looked up): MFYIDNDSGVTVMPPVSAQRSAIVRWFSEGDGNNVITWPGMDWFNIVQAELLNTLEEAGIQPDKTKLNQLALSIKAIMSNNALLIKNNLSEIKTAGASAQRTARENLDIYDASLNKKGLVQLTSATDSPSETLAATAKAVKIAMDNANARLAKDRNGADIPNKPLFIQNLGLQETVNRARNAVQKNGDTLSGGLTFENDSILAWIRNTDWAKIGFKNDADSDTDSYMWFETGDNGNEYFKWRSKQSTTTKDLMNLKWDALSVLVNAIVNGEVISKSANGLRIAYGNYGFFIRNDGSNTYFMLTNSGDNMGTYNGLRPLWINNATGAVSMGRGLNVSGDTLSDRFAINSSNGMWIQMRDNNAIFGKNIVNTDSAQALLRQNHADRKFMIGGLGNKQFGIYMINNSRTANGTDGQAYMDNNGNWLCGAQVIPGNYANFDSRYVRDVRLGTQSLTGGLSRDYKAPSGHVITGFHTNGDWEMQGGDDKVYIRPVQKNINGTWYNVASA
The note with it: both partners purified.

Another series concerns the target T5, hub protein gp44 (phage Mu, UniProt P08558 1-379).
T5 construct: baseplate hub protein gp44 of myophage Mu, as it stands in the virion; Trimer; Model deposited here; source: phage Mu virions grown on E. coli (ATCC 23724), purified (PEG 8000/NaCl precipitation, CsCl gradient)
T5 sequence (looked up): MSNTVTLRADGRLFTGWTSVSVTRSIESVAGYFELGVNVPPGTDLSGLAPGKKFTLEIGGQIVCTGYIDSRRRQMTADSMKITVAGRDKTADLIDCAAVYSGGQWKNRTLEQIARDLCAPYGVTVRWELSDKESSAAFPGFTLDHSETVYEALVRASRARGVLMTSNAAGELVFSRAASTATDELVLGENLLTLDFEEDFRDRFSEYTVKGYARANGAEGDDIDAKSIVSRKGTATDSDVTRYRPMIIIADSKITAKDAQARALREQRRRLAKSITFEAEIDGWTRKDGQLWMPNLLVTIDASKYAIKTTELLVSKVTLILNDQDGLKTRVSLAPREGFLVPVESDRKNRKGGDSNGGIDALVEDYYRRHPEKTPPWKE
The note with it: both partners purified.

Series [5] concerns the molecule itself.

On to B1, for which the binding result (with tail sheath protein gp39; in series [1]; in series [2]; in series [3]) was “binds” throughout.

Take B2: the binding result in series [4], in series [1] and in series [2] was “binds” throughout.

Take B3: the binding result with hub protein gp44 is recorded as “binds”. The “stoichiometry N” value in series [5] was found to be 3.
